These results are taken from patent US7498306B2, “Peptides binding to the phosphatase 2A protein” (priority 2002, dated 2009).

Experiment [1] has as its target T1, trimeric ABC holoenzyme PP2A1 (Sus scrofa, UniProt P54612+Q29090).
T1 construct: The trimeric PP2A1 protein has been purified to homogeneity from porcine brain; from tissue; host or cells: porcine brain
Nature of the experiment: peptide spot membrane binding, detected by western blot, with trimeric PP2A1 holoenzyme. On the set-up: species or system porcine. The following applies: 4 μg/ml purified protein overnight, pool of antibodies against A, B and C; for binding of E4orf4 peptide sequence to PP2A1 protein: E4orf4 dodecapeptide membrane, FIG. 1; for binding of Bcl-2 peptide sequence to PP2A1 holoenzyme: Bcl-2 dodecapeptide membrane, FIG. 2. An excerpt: The trimeric PP2A1 protein has been purified to homogeneity from porcine brain.
(§1) We have mapped the binding sites between the E4orf4 proteins (coded by the canine adenovirus type 2) and the anti-apoptotic Bcl-2 protein with PP2A by using the <<peptides spot>> technique previously described (Frank et Overwing. (1996). Meth. Mol. Biol. 66, 149-169).
(§2) This approach is based on the use of membranes containing thereon dodecapeptides representing the whole protein of interest (E4orf4 and Bcl-2) with a two amino acid gap per peptide.
Each membrane is first saturated one hour at room temperature with TBS containing 5% skim milk powder and 3% BSA, then incubated overnight in the same buffer in the of 4 μg/ml of purified protein (sub-unit A of PP2A and PP2A1 holoenzyme).: Fifty six dodecapeptides covering the whole sequence of the E4orf4 protein and hundred-fifteen dodecapeptides covering the whole sequence of the Bcl-2 protein were synthesized and covalently bound to cellulosic membranes.
The specific interaction of each purified protein (respectively the structural sub-unit A, the regulatory sub-unit of B55(B) or the trimeric ABC holoenzyme (named PP2A1) with a peptide sequence is shown by western blot, following incubation of the membrane with an antibody raised against the structural protein A (A), the regulatory sub-unit B (B) and with a pool of antibodies recognising the A, B, and C proteins of PP2A (ABC) (FIGS. 1 and 2).

Experiment [2] deals with T2, structural sub-unit A of PP2A (Homo sapiens, UniProt P30153).
T2 construct: made in house; host or cells: bacteria
T2 sequence (P30153 whole entry): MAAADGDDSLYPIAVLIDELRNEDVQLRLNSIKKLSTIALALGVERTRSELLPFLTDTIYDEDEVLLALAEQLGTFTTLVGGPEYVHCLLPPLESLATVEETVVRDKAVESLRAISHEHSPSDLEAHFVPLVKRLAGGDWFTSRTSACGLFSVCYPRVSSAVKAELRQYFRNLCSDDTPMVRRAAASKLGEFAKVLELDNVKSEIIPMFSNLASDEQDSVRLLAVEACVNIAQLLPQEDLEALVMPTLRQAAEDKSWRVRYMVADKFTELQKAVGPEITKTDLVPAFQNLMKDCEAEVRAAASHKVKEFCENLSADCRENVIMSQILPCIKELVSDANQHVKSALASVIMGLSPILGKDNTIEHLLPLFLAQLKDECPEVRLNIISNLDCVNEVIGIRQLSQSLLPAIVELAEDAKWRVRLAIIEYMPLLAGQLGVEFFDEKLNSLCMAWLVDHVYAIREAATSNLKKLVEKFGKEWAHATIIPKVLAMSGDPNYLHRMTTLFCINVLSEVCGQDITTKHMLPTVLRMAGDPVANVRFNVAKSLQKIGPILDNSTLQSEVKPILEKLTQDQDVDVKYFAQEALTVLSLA
Kind of experiment: peptide spot membrane binding, detected by western blot, with PP2A sub-unit A. The note with it: E4orf4 dodecapeptide membrane; 4 μg/ml purified protein overnight; antibody against protein A; FIG. 1.
Text: Recombinant protein A (structural sub-unit of PP2A) expressed in bacteria.
as §1, §2
(§3) Each membrane is first saturated one hour at room temperature with TBS containing 5% skim milk powder and 3% BSA, then incubated overnight in the same buffer in the of 4 μg/ml of purified protein (sub-unit A of PP2A and PP2A1 holoenzyme).: Fifty six dodecapeptides covering the whole sequence of the E4orf4 protein and hundred-fifteen dodecapeptides covering the whole sequence of the Bcl-2 protein were synthesized and covalently bound to cellulosic membranes. […]
(Immunoblotting shows a protein as a band on a membrane.)

Experiment [3] deals with T3, regulatory sub-unit B55 (B) of PP2A (Homo sapiens, UniProt P63151).
T3 construct: made in house; host or cells: bacteria
T3 sequence (P63151 1-447): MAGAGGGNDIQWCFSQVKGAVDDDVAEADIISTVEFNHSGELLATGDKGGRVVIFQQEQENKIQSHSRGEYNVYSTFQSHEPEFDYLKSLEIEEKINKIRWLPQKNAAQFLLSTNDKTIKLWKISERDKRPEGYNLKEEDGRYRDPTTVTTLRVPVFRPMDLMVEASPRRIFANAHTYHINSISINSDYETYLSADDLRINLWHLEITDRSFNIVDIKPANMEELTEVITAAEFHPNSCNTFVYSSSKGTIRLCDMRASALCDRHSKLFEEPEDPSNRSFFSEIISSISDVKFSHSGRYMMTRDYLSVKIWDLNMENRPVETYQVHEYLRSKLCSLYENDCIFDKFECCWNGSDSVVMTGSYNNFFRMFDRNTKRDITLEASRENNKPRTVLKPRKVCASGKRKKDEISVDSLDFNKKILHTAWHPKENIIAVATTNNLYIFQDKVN
Kind of experiment: peptide spot membrane binding, detected by western blot, with PP2A sub-unit B55. The following applies: antibody against sub-unit B.
Text: Recombinant protein B55 (regulatory sub-unit of PP2A) expressed in bacteria.
as §1, §2, §3

T1 sequence (P67776 whole entry, one chain of several, further chain): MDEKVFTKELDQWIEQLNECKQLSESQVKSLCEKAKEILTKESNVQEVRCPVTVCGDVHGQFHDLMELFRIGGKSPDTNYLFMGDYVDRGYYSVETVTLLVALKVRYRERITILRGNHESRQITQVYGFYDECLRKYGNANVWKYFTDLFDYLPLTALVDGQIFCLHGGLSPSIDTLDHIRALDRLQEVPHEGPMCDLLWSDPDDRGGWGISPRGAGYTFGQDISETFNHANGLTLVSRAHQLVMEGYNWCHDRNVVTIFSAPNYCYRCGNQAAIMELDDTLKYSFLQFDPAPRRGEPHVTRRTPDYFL
T1 sequence (P54612 whole entry, one chain of several): as the sequence (P30153 whole entry) above, with S324T counted along it

With “AFRGRE VTVSLLEVFSFC (AFRGREVTVSLLEVFSFC) [site A3, E4orf4 residues 106-124, spot peptides 52 to 55]”, in experiment [1], the “binding of E4orf4 peptide sequence to PP2A1 protein” value was “binding sites of E4orf4 with the PP2A1 protein”. Besides, the “binding of E4orf4 peptide sequence to sub-unit A” value in experiment [2] is “binding sites of E4orf4 with the sub-unit A”.

As for “ARTSPLQTPAAPGAAAGPAL [site 1-B, Bcl-2 residues 67-86, spot peptides 33 to 37]”, in experiment [3] (Bcl-2 dodecapeptide membrane, FIG. 2), the “binding of Bcl-2 peptide sequence to sub-unit B” value is given as “binding site of Bcl-2 with the regulatory sub-unit B”.

Consider “LFDFSWLSLKTLLSLALVGA [site 2-ABC, Bcl-2 residues 209-228, spot peptides 105-109]”, for which, in experiment [1], the “binding of Bcl-2 peptide sequence to PP2A1 holoenzyme” value is listed as “binding site of Bcl-2 with the PP2A1 holoenzyme”.

Turning to “LGSMLE SPMEFLFDTI DDVTAS (LGSMLESPMEFLFDTIDDVTAS) [site A 1, E4orf4 residues 25-46, spot peptides 13 to 18]”, the “binding of E4orf4 peptide sequence to sub-unit A” value in experiment [2] is reported as “binding sites of E4orf4 with the sub-unit A”.

As for “PLQTPAAPGAAAGPAL [site 1-ABC, Bcl-2 residues 71-86, spot peptides 35 to 37]”, the “binding of Bcl-2 peptide sequence to PP2A1 holoenzyme” value in experiment [1] is given as “binding site of Bcl-2 with the PP2A1 holoenzyme”.

On to “RELGSMLE SPMEFLFDTI DDVTAS (RELGSMLESPMEFLFDTIDDVTAS) [site B1, E4orf4 (canine adenovirus type 2) residues 23-46, spot peptides 12 to 18]”, for which the “binding of E4orf4 peptide sequence to PP2A1 protein” value in experiment [1] is “binding sites of E4orf4 with the PP2A1 protein”. Besides, the “binding of E4orf4 peptide sequence to sub-unit B” value in experiment [3] (E4orf4 dodecapeptide membrane, FIG. 1) was “binding site of E4orf4 with the structural sub-unit B”.
